# In the DeepSol protein solubility set:
# Test: soluble on expression in E. coli; label from the status in PepcDB or PDB records
row,Sequence,soluble on expression in E. coli
1,MEFVKGDQVEVCSKEDGFLGSYFGATVVSKTPEGSYYKIKYKNLVSDTDQSKRLVEVISADELRPMPPKSLHVLIRCGDKVDAFDKDGWWVGEVTAVRRNIYSVYFSTTDEELEYPLYSLRKHHEWVNGSWVRQ,soluble
2,MGSDKIHHHHHHNTEQQLDSEVSEPTKTMRSQQHSDGAAAITHLTPLDLPLDSQGLTDEDSQQINSLLNQLHESAMSADWDTYFDLYHPDAAFIGTDATERWNMVHFRRYASPTQGWRYDLQARHLLQIEDVVVFDEQLYSPEYGISRGTGALVNTTKGWKIAQYHLSFPIPNAKAKRITTLIKQ,not soluble
3,MGSDKIHHHHHHMKVVIVGNGPGGVELAKQLSEEHEVTIVERETVPYYTKPMLSHYVAGLAEEKSLFPYPIDWYEKKGIKLLLGTTAKRIDAEKKVLETDRGTLEYDVLVLATGAKPRTLKIPGWERMYTLRTIEDAKRLKGAVEREKDLLIIGGGFIGLEIAGNLSKQGIKVKVVEKMTRLMGLDEELTERIKGELEKHGVEFYLGRDVERIENDVLVTDKEEIPARVILCSIGIVPEVSLAKESGLDVNRGILVDKTFRTSKPDIYAIGDCAEHEGIICGTAKAAMAHAKVLANTLKGIPDEYDFHFRSSYFKFGDFPIAIVGELTDRGEWIDSETKSFYRDEKIVGVVVLSDVRKAREWEERLRSTR,not soluble
4,MGHHHHHHSHAWSGVLEWQEKPKPASVDANTKLTRSLPCQVYVNHGENLKTEQWPQKLIMQLIPQQLLTTLGPLFRNSRMVQFHFTNKDLESLKGLYRIMGNGFAGCVHFPHTAPCEVRVLMLLYSSKKKIFMGLIPYDQSGFVNGIRQVITNHKQVQQQKLEQQQRGMGGQQAPPGLGPILEDQAR,soluble
5,MGSDKIHHHHHHMVELKAPLTTLWRGKDAFEEVKTLQGEVFRELETRRTLRFELDGKSYFLKWHKGTSLKEIVKNLISLRMPVLGADREWHAIHRLHELGVDTMHGVGFGEKGVNPLTRTSFIITEDLTPTISLEDYCADWAVNPPDAQVKWMIIKRVATMVRKMHAGGINHRDCYICHFLLHLPFTGREEDLKISVIDLHRAQIRQHVPLRWRDKDLIGLYFSSMNIGLTQRDIFRFMREYFSLPLREILQKESGLIHQADVKAARIKERTIRKNL,not soluble
6,MAEKNHQQQERLPGNPFFPSRSNAGSSFDMPETPHLIDSLTSQIDEFTIQSIIDTQRQSLKRFEKTNEMLMNCAQLGDRRIEKAKRDSVGHKETILQMKTDLEFIFKKIRMFKTVLSSKYPEVYAEVSAELTPKRSEEDE,not soluble
7,MIRLSNENTIFFMDKENVPIASCQSGDTVIFETKDCFSDQITNEEQALTSIDFNRVNPATGPLYVEGARRGDMLEIEILDIKVGKQGVMTAAPGLGALGESLNSPTTKLFPIEGDDVVYSTGLRLPLQPMIGVIGTAPPGEPINNGTPGPHGGNLDTKDIKPGTTVYLPVEVDGALLALGDLHAAMGDGEILICGVEIAGTVTLKVNVKKERMFPLPALKTDTHFMTIASAETLDAAAVQATKNMATFLANRTALSIEEAGMLLSGAGDLYVSQIVNPLKTARFSLALHYFEKLGVDLCNLEHHHHHH,soluble
8,MDDGDTADDIMDATYRALCTHGYADLTMQDIADESDKSKAALHYHYDSKHDLLCAFLEYLYDGFVDRIEDPAGETPHERLLSLIDSVLDKPDDGSEEFGTAILEIRAHAPYEPGFRERLTKFDDYLVDELEVILEDGIADGTFKSDLDADETAQFIVTVLTGAATERVTTGRPVKCTRRMLTEYVETHLLDGQQEVTA,not soluble
9,MNELQFQQAAGISAGLSARWFPHIDAAMSEFGITAPLDQAMFIAQTGHESAGFTVLRESFNYSVEALKKTFGKRLTPYQCEMLGRIDGRQVAHQPQIANLVYGGRMGNKDAGDGWKYRGRGLIQITGLENYTRCGVALKLDLVANPGQLELERHAARSAAWFFVTKGCLKYSGDLVRVTQIINGGQNGFGDRRERFEKAKSVLV,not soluble
10,MKTSANIATSASGNGLADVLERVLDKGVVIAGDISVSIASTELLNIKIRLLISSVERAKEIGINWWESDPYFSSQNNSLVQANEKLLERVASLESEIKALRSN,not soluble
11,MPDGGLAAPDRAVLPRAMTPPPSTSRTYDAVIVGGGHNGLVAAAYLARAGRSVLVLERLDHTGGAAVSTKPFAGVDARLSRYSYLVSLLPKKIVRDLGLDFRVRARTVSSYTPVERAGRPTGLLVGGGERRTRESFARLTGSQREYDAWQRFYAMTGHVAQRVFPTLTEPLPTRDELRRRVDDETAWRALFEEPVGVAIEEHFDDDLVRGVALTDALIGTFADAHDPSLAQNRCFLYHVIGGGTGAWDVPVGGMGALTDALAGAARAAGAVLATGHEAVRIEADGHGAEVTFRSADGEGVAAARHVLVNASPRELAALTGDAPPAPAEGAQLKVNMLLTRLPRLRDPDADPREAFAGTFHIAEGYEQLAAAHARAAAGELPAAPPSEIYCHSLTDPTILGPGPAAKGMHTLTLFGLHTPARLFARDNDAVRAELLKSTLAQLDAHLAEPLADCLATDADGRPCIEARSPLDLERDLGLPGGNIFHRELSWPHAQEGTGHWGVETGRARVLLCGAGAVRGGGVSGVPGHNAAMAVLDGTTGLEHHHHHH,not soluble
12,MAHHHHHHMYDVKSIHIFRKVKDKDKGKSVILRGLNDNFFNAILVCMYEIVIYLNFANCEDGSTNKPSNKKKKKKGDDRNETTYYVKSARNENNAYRSNVKEVISHNKNKKKINGASGNAAVTREEKGKAERSGDFPGGGENMNDDKENPNQITLWSSNNHEEFGYEYIKDIIKKEEKELYETDKMYHNSNDEYSSHTSDSVEQ,not soluble
13,MKPKHLLCLSTVVAGLALFSTMTHSVLADDASNPDTILMNNNQANLQRDALVQKLDEGHQQLEAIKHEAKGTDIEATVNKAIDAVDHMKSSIRFNTETIYDFSSIGARVEALSDAIKAIVFSTTQLTHKVEKAHTDTGFAITKLVIRIIDPFASVDAIKAQVQEIKALEEKVINYPDLQPTDRATIYTKAKLNKAIWNTRLERDKKVLGIKSFDVYNRLNKAITHAVGVQLNPTTTVQQVDDEVIAVQNALETALKSLEHHHHHH,soluble
14,MSLGLFSKKPPCPICGGKIPLILPSKIEDEYICNTCYNKIDMGADQENHLTMQGLREYLAFYEQNQRLKEQFVISERIDFGLWDTKIIFDHRNKLFCMSKNPDKTVFEGQQLKSFTIKEDSTPLFEGSAAGIRRYASTVTERTMAMAPQIAQSAANRRMARTLDRLDDGKVNNSAPVQYFDIPEPFQAFNVELHFDHPYWTVLQCDMDGPRFDNSHPDVNNYLRSYQQSIEEIEKLVAALRTVAFPGAAEQSVGLGPVGMQAAYTTMAPPTDAIEEIKKYKALMEDGIISQQEFEAKKKQLLGIEGHHHHHH,soluble
15,MSLNSATHLAAHEGSARRRQALGEFVRTARARITPQMAGLPAGSRRRTPGLRREEVAQLSDISVTWYTWIEQGREVTVSPAVWARIANVLHLARAERAYLFELAECADPQQPRDEGGDAPVSLQACVDAIDAPAYALDRAWNLLASNAAMRELFDDWPLRDAQPNLLRYIFLDPAARELVVDWDQRARRVVAEFRADAGAHLDEADVVALLDELNRASPVFAHWWTRHAVVEREGGLREFQHPRSGRQNLQQITFRLATHPELKLVMLLPSEGHHHHHH,soluble
16,MSLTMAKTLYEKVFDAHVVYEGKNELPILYIDRHLIHEVTSPQAFSGLKMAKRRMARADLTLATIDHDVSTKSMDLNACSDMAKEQITTLMQNTKEFGVRLLGLGDKNQGIVHIVGPELGFTLPGVTLVCGDSHTATHGAFGALAFGIGTSEVEHVMATQTLKQAKLKTMKIECKGQFQKGVYTKDLILYLIAQYGTAKGTGYAIEFCGELIRNLSMEARMTLCNMAIEFGAKVGMIAPDEITFEYIKGKEFAPKGEEFQKYCEYWKSLRSDEGAKYDASITLDVSKIKPQISYGTNPSQVIGIDEKIPKISDFKNQSEQKSLLDALYYVNLEQDQVIEGVKIDIVFIGSCTNGRLEDLKIAADILKGRKIHKNVKALIVPGSMQVRKEAENLGLDKIFIEAGCEWRYAGCSMCLGMNDDKANSGQRVASTSNRNFVGRQGKGSITHLMSPASAAACAIEGVICDNRKYLGEGHHHHHH,soluble
